This is an account of results in patent US20250188136A1, “AV3 MUTANT POLYPEPTIDES FOR PEST CONTROL” (Vestaron Corporation, priority 2021, published 2025).

Data set [1] in a line: Thermo-stability at 54° C. in pH 4.0 solution. Type of data set: physicochemical. The method, then:
A thermo-stability study was performed for Av3b, Av3bM24, Av3bM165, Av3bM103, and Av3bM170 in a pH 4.0 solution at 54° C. for 0, 3, 7, 10, 12, and 14 days, with a caffeine internal control to cancel variation from evaporation. Samples of 1 mL were prepared in 1.5 mL microtube with sodium acetate buffer (NaOAc) at pH 4.0, containing 0.1 μg/μL of peptide, and 0.025 μg/μL of caffeine. The samples were incubated at 54° C. in a dry mixer. At 0, 3, 7, 10, 12, and 14 days, 20 μL of each sample was analyzed via analytic rpHPLC system to evaluate peptide loss. Each sample contained a fixed amount caffeine, which was used to compensate the peptide HPLC UV absorbance peak change due to volume change by evaporation. FIG. 68.

Data set [2] can be described thus: Proteolytic resistance of Av3b mutants during production-strain fermentation (rpHPLC). Type of data set: physicochemical. The protocol: The mutants in the table below were evaluated for stability in fermentation beer. Fermentation conditions and HPLC analysis were performed as described above. The mutant production strains were generated using YCT306 K. lactis strain. The production of mutants was performed as described in Example 2; fermentation conditions were performed using the same fermentation process described above regarding the Av3b production strain, with pH control at pH 6.5. […] To identify the mutant with proteolytic resistance, the mutant strains were grown under the same fermentation conditions as Av3b, and samples were taken throughout the fermentation process. The samples taken at 140 hour of fermentation process were analyzed in rpHPLC.

For a further data set, the system named is Helicoverpa zea. Put plainly: Lepidoptera injection assay, corn earworm (CEW). It counts as in vivo. The protocol:
(§1) An injection assay was performed on Helicoverpa zea (corn earworm or “CEW”) and Spodoptera frugiperda (fall armyworm or “FAW”). Injections comprised a given Av3b mutant peptide combined with water to arrive at the planned dose. The Av3b mutants included Av3bM24; Av3bM165; Av3bM103; and Av3bM170. Av3b was used as a control.
(§2) Insects were reared on an artificial diet prepared from General Purpose Lepidoptera diet (Frontier Scientific, Newark, DE 19713, product No. F9772) according to the manufacturer's instructions. To perform the insect injection bioassay, 5 mL of hot diet was dispensed into the well of a rearing tray (Bio-Service Inc., Bio-RT-32), with 8 wells per injection treatment. The hot diet was then allowed to cool and solidify. Next, third instar larva were incubated on ice in order to immobilize them. Injections were prepared on a hand-microapplicator with injection solution (>100 μL) in 1-cc all-glass syringe having a 30 gauge straight needle. Air bubbles were removed from the syringe, and the syringe was set it up on the microapplicator. Injection volume was adjusted in the microapplicator at 2 μL.
(§3) To inject the larva, the insects were picked up and positioned close to the injection needle. The needle was allowed to penetrate the cuticle of the third pro-leg of the larva. The injection knob of the microapplicator was then rotated to inject a 2 μL solution into hemolymph from the third pro-leg. After injection the larva maintained on the needle for a few seconds to make sure the injected solution was absorbed. Then, the larva were gently removed from the needle and placed into the wells of prepared tray, along with 5 mL of solidified diet per well. Finally, the tray was sealed with vent covers.
(§4) Injected larva were incubated at 28° C. in an insect incubator, and scored at 24-hours post-injection based on their condition. Insect conditions were categorized as follows: alive (walking, eating, normal behavior); affected (showing toxic symptoms, such as tremors, writhing, unbalanced gait, or a combination thereof), knockdown (paralyzed albeit able to move with gentle poke); and dead (unmoving, discoloration, or a combination thereof).

The nature of data set [3]: Stability of Av3b mutants in insect gut extract. Type of data set: in vitro ADME, Helicoverpa zea. Conditions: H. zea gut extract, room temperature. The method, then: To test the stability of the Av3b mutants in the gut enzymes of a lepidopteran pest, the gut extract were prepared from Helicoverpa zea (Corn Earworm or “CEW”). Corn Earworm insects were obtained commercially from Benzon Research (Carlisle, PA) as eggs. Hatched larvae were raised on artificial diet until ⅘^th instar (20 mm long) before guts were isolated. Before gut extraction, larvae were anesthetized using CO2. The larva was then pinned on the dissection plate at both the head and the tail. Using dissection scissors, the cuticle was nicked. The dissection scissors were then inserted into the nick and the […] along the insect. The cuticle was then carefully pulled back and pinned open to reveal the digestive track. Using DI water, the insect was thoroughly rinsed to remove hemolymph.
After the insect guts were extracted from the larva, they were spun at 15000 rpm for 5 minutes. The resulting supernatant is the “insect gut extract” that was used to determine peptide stability. Av3b mutant peptide was mixed with the gut extract to […] of 2 μg/μL, and incubated at room temperature. At time points between 0-100 hours, 6 μL of a given sample was mixed with 93 μL dH2O followed by the addition of 1 μL of a 2% trifluoracetic acid solution to stop the reaction. The sample was then analyzed by rpHPLC to determine the peptide loss during the gut extract treatment.

The next data set concerns Spodoptera frugiperda. The experiment in a line: Lepidoptera injection assay, fall armyworm (FAW). It counts as in vivo. Conditions: third instar larva, 2 μL injection, scored at 24-hours post-injection. The method, then:
as §1, §2, §3, §4

Data set [4] in a line: Circular dichroism assay, melting temperature. Conditions: 10 mM Na3PO4 solution, pH 5.9; 20° C. to 98° C. Type of data set: physicochemical. The protocol: A JASCO J-1500 CD spectrometer (JASCO, 28600 Mary's Court, Easton, MD 21601 USA) was used to measure the CD spectrum and the secondary structure information of the Av3bM24, Av3bM165, Av3bM103, and Av3bM170 peptides (with Av3b as a comparator). The peptides were prepared in 10 mM Na3PO4 solution, pH 5.9, and loaded into the cuvette for CD spectrum measurement. Measurements were processed with a light wavelength scan ranging from 180 nm to 250 nm, with a 1 nm interval; the temperature graduate changed from 20° C. to 98° C., with 2° C. interval.
On the technique in general: Circular dichroism is the unequal absorption of left and right circularly polarised light.

Data set [5] is described as follows: DASbox small-scale fermentation, degradation by HPLC and LC/MS. Type of data set: physicochemical. Conditions: DASbox fed batch fermentation runs. The method, then: DASbox® is a parallel bioreactor system (Eppendorf, 175 Freshwater Blvd, Enfield, CT 06082, USA). The DASbox system used here contains 8 fermentation vessels with 250 mL volume capacity, allowing 8 small scale fermentation runs simultaneously. The DASbox fermentation runs were performed according to the manufacturer's instructions, and using the fermentation conditions described herein.
The screening of the Av3b mutants was conducted using a fed batch process in aerobic bioreactor. Reactors were initially filled to ˜45% capacity with a rich culture media containing 5-20 g/L of a carbon source such as glucose, sorbitol, or lactose, 5-20 g/L phosphoric acid, 0.1-1.5 g/L Calcium sulfate, 5-15 g/L Potassium sulfate, 0.5-10 g/L Magnesium sulfate heptahydrate, 1-5 g/L potassium hydroxide, and 10-60 g/L of corn steep liquor. The temperature of the reactor was maintained between 25-35° C. for the duration of the fermentation. The pH was held constant between 4-5.5 with the addition of 15% ammonium hydroxide. Dissolved oxygen was held constant by sparging air between 0.5-1.5 volume/volume/min and by increasing agitation to maintain a set point of 10-30%.
Inoculation of the reactor was from an overnight seed culture containing 5-40 g/L of a carbon source such as glucose, sorbitol, or lactose, and 5-40 g/L of corn steep liquor. Inoculation percentage ranged from 5-20% of initial fill volume. Once inoculated, the reactor was fed with a 70% solution of the selected carbon source until the reactor was filled and/or desired supernatant peptide concentration was achieved, approximately 96-140 hours and 0.8-1.2 g/L, respectively.

Entries after “also recorded” stand apart in the source; their conditions may differ.

On to KSCCPCYWGGCPWGQNCYPEGCSGPKVG [Av3bM165], for which the “peptide change on day 14” value in data set [1] (pH 4.0, 54° C., HPLC peak area, + mass increase, − mass loss) was “+4.2%”. Also, the “thermo-stability at 54° C.” value in data set [1] (pH 4.0 solution, up to 14 days) was “thermo-stable”. Further, in data set [2] (mutant strain fermentation at pH 6.5, 140 hours, rpHPLC), the “Degradation?” value is reported as “No”. Also, the “degradation product during fermentation (HPLC)” value in data set [2] (production strain fermentation at pH 6.5, rpHPLC) is on record as “did not show any degradation product; also recorded: without apparent degradation products”. In addition, the “knock-down effects compared to Av3b” value in the data set on Helicoverpa zea (CEW and FAW injection, KD50) is listed as “comparable knock-down effects to Av3b”. Also, in the data set with Helicoverpa zea (third instar larva, 2 μL injection, scored at 24-hours post-injection), the “KD50 CEW” value turned out to be 389 pmol/g. Moreover, in data set [3], the “half conversion time to Av3b peptide” value came out at 5.3 min. Also, the “KD50 FAW” value with Spodoptera frugiperda is recorded as 578 pmol/g. Also, the “CD Melting temperature” value in data set [4] was determined as 80 °C. The “degradation detected via HPLC and LC/MS” value in data set [5] was “degradation was not detected”.
